Reference: article PMC2879517 (Nucleic Acids Research, 2010)

B1: DdrB from D. geothermalis labeled with SeMet (natural protein)
chain: MLHIEFITDLGAKVTVDVESADKLLDVQRQYGRLGWTSGEVPVGGYQFPLENEPDFDWSLIGARKWTNPEGEEMILHRGHAYRRRELEAVDSRKMKLPAAVKYSRGAKNTDPEHVREKADGEFEYVTLAIFRGGKRQERYAVPGSNRPQAGAPARSAATRAQGARPGAVAVQDEETPF
modifications: selenomethionine (SeMet) in place of methionine
B2: DdrB (DNA damage response B) from D. geothermalis, native, untagged (natural protein)
chain: MLHIEFITDLGAKVTVDVESADKLLDVQRQYGRLGWTSGEVPVGGYQFPLENEPDFDWSLIGARKWTNPEGEEMILHRGHAYRRRELEAVDSRKMKLPAAVKYSRGAKNTDPEHVREKADGEFEYVTLAIFRGGKRQERYAVPGSNRPQAGAPARSAATRAQGARPGAVAVQDEETPF

Experiments:
crystal structure = biological target: the molecule itself; test: crystal structure
SEC = biological target: the molecule itself; test: SEC

Row | Protein | stoichiometry N (crystal structure) | stoichiometry N (SEC)
1 | B1 | 5 | –
2 | B2 | – | 5
